Laboratory results as given in US20240261333A1, “NOVEL TARGETS FOR ENHANCING ANTI-TUMOR IMMUNITY” (THE BROAD INSTITUTE, INC., priority 2021, published 2024).

Key:
RPLPO (human) = RPLPO (human) (UniProt P05388); assay: co-IP/MS, IgG control IP of N-FLAG B3GNT2 cell lysate
CAPZB (human) = CAPZB (human) (UniProt P47756); assay: as above
RPL37A = RPL37A (UniProt P61513); assay: co-IP, IgG control, N-FLAG B3GNT2 cell lysate, mass spectrometry
TMEM59 = TMEM59 (UniProt Q9BXS4); assay: as above
ITGB3 = ITGB3 (UniProt P05106); assay: as above
Sequence of ITGB3 (P05106 27-788 limits assumed): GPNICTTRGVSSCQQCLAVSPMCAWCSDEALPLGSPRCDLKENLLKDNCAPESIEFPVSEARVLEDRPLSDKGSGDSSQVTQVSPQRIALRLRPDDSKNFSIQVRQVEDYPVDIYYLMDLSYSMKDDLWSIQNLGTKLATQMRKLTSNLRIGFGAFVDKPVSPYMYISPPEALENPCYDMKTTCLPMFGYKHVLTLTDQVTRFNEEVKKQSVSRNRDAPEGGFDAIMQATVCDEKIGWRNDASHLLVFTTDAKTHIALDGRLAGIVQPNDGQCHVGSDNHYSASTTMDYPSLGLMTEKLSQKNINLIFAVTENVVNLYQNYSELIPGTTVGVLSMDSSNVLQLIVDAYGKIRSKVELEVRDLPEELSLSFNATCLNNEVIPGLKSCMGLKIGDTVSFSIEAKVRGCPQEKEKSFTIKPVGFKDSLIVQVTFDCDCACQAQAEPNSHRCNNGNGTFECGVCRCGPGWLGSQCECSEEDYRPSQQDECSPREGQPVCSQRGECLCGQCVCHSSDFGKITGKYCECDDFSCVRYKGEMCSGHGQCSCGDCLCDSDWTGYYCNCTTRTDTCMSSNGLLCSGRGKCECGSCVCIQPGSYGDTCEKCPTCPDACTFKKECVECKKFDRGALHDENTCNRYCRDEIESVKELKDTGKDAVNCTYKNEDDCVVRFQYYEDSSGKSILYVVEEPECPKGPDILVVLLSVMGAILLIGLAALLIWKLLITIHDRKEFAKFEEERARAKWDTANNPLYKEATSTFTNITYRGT

RPS19 = RPS19 (UniProt P39019); assay: as above
RPL22 = RPL22 (UniProt P35268); assay: as above
NCCRP1 = NCCRP1 (UniProt Q6ZVX7); assay: as above
RPL27A = RPL27A (UniProt P46776); assay: as above
RPS18 = RPS18 (UniProt P62269); assay: as above
TAGLN = TAGLN (UniProt Q01995); assay: as above
Sequence of TAGLN (Q01995 2-201 limits assumed): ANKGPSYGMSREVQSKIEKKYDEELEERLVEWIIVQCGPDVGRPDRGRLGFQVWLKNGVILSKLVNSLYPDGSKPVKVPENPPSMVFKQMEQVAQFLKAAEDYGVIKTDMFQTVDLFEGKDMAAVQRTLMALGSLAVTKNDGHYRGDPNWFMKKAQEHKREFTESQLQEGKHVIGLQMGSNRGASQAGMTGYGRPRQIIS

CDSN = CDSN (UniProt Q15517); assay: as above
ARG1 = ARG1 (UniProt P05089); assay: as above
RPS23 = RPS23 (UniProt P62266); assay: as above
DDX20 = DDX20 (UniProt Q9UHI6); assay: as above
RPL35 = RPL35 (UniProt P42766); assay: as above
PBXIP1 = PBXIP1 (UniProt Q96AQ6); assay: as above
SSRP1 = SSRP1 (UniProt Q08945); assay: as above
Sequence of SSRP1 (Q08945 2-709 limits assumed): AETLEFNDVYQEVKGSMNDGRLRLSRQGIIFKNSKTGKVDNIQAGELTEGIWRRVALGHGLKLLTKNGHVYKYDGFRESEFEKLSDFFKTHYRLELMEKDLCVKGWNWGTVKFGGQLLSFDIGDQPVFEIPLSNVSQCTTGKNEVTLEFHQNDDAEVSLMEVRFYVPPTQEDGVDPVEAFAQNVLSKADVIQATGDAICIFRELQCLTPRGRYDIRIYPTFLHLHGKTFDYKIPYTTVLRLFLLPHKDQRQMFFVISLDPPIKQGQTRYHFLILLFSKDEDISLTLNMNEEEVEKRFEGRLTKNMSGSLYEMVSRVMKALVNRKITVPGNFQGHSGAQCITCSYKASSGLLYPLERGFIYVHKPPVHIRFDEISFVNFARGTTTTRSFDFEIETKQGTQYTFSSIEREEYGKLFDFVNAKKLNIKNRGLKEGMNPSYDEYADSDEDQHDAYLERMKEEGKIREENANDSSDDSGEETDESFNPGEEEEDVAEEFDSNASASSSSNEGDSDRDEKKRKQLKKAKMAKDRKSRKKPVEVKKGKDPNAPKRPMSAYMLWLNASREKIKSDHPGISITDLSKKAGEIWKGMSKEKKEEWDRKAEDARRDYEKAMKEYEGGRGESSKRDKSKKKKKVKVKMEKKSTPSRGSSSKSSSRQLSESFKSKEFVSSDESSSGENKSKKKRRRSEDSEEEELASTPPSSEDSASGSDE

DNAJA2 = DNAJA2 (UniProt O60884); assay: as above
Sequence of DNAJA2 (O60884 1-409 limits assumed): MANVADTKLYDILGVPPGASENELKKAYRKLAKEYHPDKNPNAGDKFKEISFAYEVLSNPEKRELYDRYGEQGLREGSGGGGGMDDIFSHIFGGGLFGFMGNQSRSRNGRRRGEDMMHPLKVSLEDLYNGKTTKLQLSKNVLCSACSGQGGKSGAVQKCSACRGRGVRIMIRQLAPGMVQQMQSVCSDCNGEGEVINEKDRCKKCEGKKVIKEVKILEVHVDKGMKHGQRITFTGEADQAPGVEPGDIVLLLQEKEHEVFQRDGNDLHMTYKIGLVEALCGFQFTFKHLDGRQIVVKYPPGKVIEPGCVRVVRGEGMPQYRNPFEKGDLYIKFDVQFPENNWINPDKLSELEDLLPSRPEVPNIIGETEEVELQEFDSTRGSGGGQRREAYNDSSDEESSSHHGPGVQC

HIST1H1E = HIST1H1E (UniProt P10412); assay: as above
Sequence of HIST1H1E (P10412 2-219 limits assumed): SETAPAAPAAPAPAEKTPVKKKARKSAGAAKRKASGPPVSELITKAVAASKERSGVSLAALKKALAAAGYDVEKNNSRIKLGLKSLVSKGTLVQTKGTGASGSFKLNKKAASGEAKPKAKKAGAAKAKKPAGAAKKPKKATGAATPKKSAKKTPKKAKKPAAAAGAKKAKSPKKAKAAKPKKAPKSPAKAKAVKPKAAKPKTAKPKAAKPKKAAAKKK

POF1B = POF1B (UniProt Q8WVV4); assay: as above
RPL5 = RPL5 (UniProt P46777); assay: as above
EMD = EMD (UniProt P50402); assay: as above
Sequence of EMD (P50402 whole entry): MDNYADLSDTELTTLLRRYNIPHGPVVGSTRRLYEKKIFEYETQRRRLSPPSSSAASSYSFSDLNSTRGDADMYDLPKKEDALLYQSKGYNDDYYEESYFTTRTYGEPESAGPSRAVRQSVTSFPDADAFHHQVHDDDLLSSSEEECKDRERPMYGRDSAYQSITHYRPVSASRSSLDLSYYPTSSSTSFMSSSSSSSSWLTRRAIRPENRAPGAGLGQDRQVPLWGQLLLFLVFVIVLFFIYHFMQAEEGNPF

RPL19 = RPL19 (UniProt P84098); assay: as above
TXN = TXN (UniProt P10599); assay: as above
Sequence of TXN (P10599 2-105 limits assumed): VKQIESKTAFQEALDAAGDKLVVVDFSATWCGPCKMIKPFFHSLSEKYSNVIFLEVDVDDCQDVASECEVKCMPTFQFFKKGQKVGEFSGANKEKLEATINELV

EIF4G1 = EIF4G1 (UniProt Q04637); assay: as above
LIMA1 = LIMA1 (UniProt Q9UHB6); assay: as above
SRSF3 = SRSF3 (UniProt P84103); assay: as above
MTDH = MTDH (UniProt Q86UE4); assay: as above
DEFA3 = DEFA3 (UniProt P59666); assay: as above
Sequence of DEFA3 (P59666 65-94 limits assumed): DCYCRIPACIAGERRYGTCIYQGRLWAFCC

RPS8 = RPS8 (UniProt P62241); assay: as above
TNKS1BP1 = TNKS1BP1 (UniProt Q9C0C2); assay: as above
Sequence of TNKS1BP1 (Q9C0C2 whole entry): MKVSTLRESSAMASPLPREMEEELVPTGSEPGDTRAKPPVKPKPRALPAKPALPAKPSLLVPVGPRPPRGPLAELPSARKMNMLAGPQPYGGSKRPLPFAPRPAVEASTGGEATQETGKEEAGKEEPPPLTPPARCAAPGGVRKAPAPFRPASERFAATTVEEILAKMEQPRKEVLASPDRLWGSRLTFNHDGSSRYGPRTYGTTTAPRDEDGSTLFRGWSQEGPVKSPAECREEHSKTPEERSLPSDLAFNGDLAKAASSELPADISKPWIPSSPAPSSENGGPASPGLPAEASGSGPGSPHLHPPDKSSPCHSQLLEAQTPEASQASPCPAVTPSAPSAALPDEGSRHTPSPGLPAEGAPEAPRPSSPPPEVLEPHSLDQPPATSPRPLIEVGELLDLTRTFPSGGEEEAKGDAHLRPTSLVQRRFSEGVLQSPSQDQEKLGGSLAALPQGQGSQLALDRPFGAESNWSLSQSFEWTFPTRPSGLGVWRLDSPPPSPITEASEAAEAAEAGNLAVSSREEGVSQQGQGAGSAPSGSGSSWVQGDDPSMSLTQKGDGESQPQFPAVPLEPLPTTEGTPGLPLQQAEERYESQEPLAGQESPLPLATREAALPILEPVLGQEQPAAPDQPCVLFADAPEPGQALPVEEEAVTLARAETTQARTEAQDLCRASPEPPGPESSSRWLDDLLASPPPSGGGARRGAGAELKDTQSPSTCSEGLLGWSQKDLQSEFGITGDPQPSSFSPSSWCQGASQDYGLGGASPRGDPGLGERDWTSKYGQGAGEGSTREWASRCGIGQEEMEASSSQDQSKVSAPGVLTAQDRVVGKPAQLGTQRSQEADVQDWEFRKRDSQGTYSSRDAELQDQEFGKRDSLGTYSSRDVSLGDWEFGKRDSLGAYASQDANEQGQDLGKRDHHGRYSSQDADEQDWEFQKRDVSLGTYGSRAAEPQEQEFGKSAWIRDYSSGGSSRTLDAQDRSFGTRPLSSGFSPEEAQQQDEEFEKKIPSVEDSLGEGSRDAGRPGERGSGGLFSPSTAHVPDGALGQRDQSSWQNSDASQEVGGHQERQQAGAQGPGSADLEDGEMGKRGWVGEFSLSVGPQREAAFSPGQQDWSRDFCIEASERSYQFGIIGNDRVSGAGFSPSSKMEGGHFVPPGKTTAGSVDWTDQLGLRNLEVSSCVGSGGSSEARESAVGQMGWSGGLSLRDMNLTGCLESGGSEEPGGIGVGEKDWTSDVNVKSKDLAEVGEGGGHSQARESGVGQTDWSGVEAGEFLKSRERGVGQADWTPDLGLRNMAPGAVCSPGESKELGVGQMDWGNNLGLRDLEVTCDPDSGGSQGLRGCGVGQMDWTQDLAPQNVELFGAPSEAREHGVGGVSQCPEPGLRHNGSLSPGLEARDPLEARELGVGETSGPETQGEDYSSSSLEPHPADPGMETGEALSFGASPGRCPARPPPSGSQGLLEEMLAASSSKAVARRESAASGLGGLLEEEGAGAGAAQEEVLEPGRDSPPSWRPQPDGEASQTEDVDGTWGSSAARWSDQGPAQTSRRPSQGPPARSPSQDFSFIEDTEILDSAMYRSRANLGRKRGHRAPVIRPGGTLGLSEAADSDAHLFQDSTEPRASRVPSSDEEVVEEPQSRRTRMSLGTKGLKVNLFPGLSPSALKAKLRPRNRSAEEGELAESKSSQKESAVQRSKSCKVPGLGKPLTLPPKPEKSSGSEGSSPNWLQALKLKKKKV

RPL3 = RPL3 (UniProt P39023); assay: as above
MTCH2 = MTCH2 (UniProt Q9Y6C9); assay: as above
CFL1 = CFL1 (UniProt P23528); assay: as above
HSPB1 = HSPB1 (UniProt P04792); assay: as above
Sequence of HSPB1 (P04792 whole entry): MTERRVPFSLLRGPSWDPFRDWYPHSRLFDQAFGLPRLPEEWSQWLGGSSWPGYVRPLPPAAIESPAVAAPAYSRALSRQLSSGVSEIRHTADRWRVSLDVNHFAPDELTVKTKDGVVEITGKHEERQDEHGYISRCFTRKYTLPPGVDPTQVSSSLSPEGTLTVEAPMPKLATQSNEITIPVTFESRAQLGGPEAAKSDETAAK

HNRNPU = HNRNPU (UniProt Q00839); assay: as above
RPS2 = RPS2 (UniProt P15880); assay: as above
RPS16 = RPS16 (UniProt P62249); assay: as above
SRSF1 = SRSF1 (UniProt Q07955); assay: as above
PSMA7 = PSMA7 (UniProt O14818); assay: as above

Sequence of TMEM59 (Q9BXS4 36-323 limits assumed): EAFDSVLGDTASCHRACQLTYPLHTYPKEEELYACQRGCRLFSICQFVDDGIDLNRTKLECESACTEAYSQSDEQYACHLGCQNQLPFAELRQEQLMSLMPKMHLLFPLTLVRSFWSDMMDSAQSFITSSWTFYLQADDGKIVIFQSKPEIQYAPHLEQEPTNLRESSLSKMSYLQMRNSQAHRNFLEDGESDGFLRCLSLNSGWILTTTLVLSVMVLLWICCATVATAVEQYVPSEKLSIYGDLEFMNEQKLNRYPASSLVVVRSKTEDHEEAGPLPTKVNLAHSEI

Substance: IgG control (Millipore Sigma 12-371) (antibody)
- co-IP mass spectrometry count (RPLPO (human)): 0
- co-IP mass spectrometry count (CAPZB (human)): 2
- co-IP mass spectrometry count (RPL37A): 4
- co-IP mass spectrometry count (TMEM59): 0
- co-IP mass spectrometry count (ITGB3): 0
- co-IP mass spectrometry count (RPS19): 5
- co-IP mass spectrometry count (RPL22): 0
- co-IP mass spectrometry count (NCCRP1): 4
- co-IP mass spectrometry count (RPL27A): 3
- co-IP mass spectrometry count (RPS18): 11
- co-IP mass spectrometry count (TAGLN): 0
- co-IP mass spectrometry count (CDSN): 0
- co-IP mass spectrometry count (ARG1): 4
- co-IP mass spectrometry count (RPS23): 6
- co-IP mass spectrometry count (DDX20): 0
- co-IP mass spectrometry count (RPL35): 2
- co-IP mass spectrometry count (PBXIP1): 0
- co-IP mass spectrometry count (SSRP1): 0
- co-IP mass spectrometry count (DNAJA2): 0
- co-IP mass spectrometry count (HIST1H1E): 2
- co-IP mass spectrometry count (POF1B): 0
- co-IP mass spectrometry count (RPL5): 0
- co-IP mass spectrometry count (EMD): 0
- co-IP mass spectrometry count (RPL19): 2
- co-IP mass spectrometry count (TXN): 3
- co-IP mass spectrometry count (EIF4G1): 2
- co-IP mass spectrometry count (LIMA1): 3
- co-IP mass spectrometry count (SRSF3): 4
- co-IP mass spectrometry count (MTDH): 0
- co-IP mass spectrometry count (DEFA3): 3
- co-IP mass spectrometry count (RPS8): 7
- co-IP mass spectrometry count (TNKS1BP1): 4
- co-IP mass spectrometry count (RPL3): 3
- co-IP mass spectrometry count (MTCH2): 0
- co-IP mass spectrometry count (CFL1): 3
- co-IP mass spectrometry count (HSPB1): 4
- co-IP mass spectrometry count (HNRNPU): 2
- co-IP mass spectrometry count (RPS2): 10
- co-IP mass spectrometry count (RPS16): 10
- co-IP mass spectrometry count (SRSF1): 5
- co-IP mass spectrometry count (PSMA7): 0
